From patent US5801037A, “Expression of signal-peptide-free staphylokinases” (medac Gesellschaft fur klinische spezialpraparate mbH, priority 1991, dated 1998) come the findings set out here.

For data set [1], the target named is plasminogen.
Data set [2] has as its target human plasminogen isolated from human plasma (human, UniProt P00747). Briefly: analytical affinity chromatography on immobilized human plasminogen, 16° C., 0.1M tris-HCl pH 7.3.
Data set [3] deals with plasminogen. Briefly: Determination of the specific activity of the SAK polypeptides (plasmin release from plasminogen, Chromozym-PL). The format is biochemical. The following applies: plasminogen in excess, activation 10 minutes at 25° C., 405 nm. The procedure:
The specific activity of a SAK form is defined as that quantity of plasmin (μmol) which is released per minute by 1 μmol of this SAK polypeptide from plasminogen (used in excess).
The protein content of the pertinent SAK polypeptide-containing parent solutions is established by means of the Bio-Rad Protein Assay (Bio-Rad, Munich) using bovine serum albumin as standard protein.
The determination of the plasmin release by the SAK polypeptides is carried out in two steps:
Firstly, dilution series (1 ng to 500 ng) of the SAK polypeptides are produced in 100 mM tris (pH 8.0). A reaction mixture, consisting of 30 μl plasminogen solution 20 mg plasminogen (Fluka), dissolved in 1 ml H2 O, 150 μl 100 mM tris buffer (pH 5.0) and 10 μl activator solution (dilution series SAK polypeptides) is then prepared. This mixture is incubated for 10 minutes at 25° C. […]
Reference samples, calibration samples and the actual measurement samples (each 250 μl) are pipetted into a microtitre plate with 96 cavities (flat bottom) and the adsorption at 405 nm is measured in a multi-channel photometer.
The quantity of plasmin which is released per minute by the SAK polypeptides contained in the starting solutions (dilution samples) can be calculated from the absorption values of the measured samples, taking into account the absorption values of the plasmin calibration series and of the reference samples. […]

Turning to mature native staphylokinase SAK42D, the specific activity in µmol plasmin/(µmol SAK × min) (µmol plasmin/(µmol SAK × min)) with plasminogen [1] was found to be 16.2.
In the case of SAK fragment form N10ΔSAK42D, the specific activity in µmol plasmin/(µmol SAK × min) (µmol plasmin/(µmol SAK × min)) with plasminogen [1] is 22.7.
Still for that read-out and setting: under artificial allelic SAK form SAKM26L stands 36.6.
Still for that read-out and setting: under artificial allelic SAK form SAKM26C stands 21.1; under SAK fragment form N14ΔSAK42D, 8.1.

B1: SAK fragment form N14ΔSAK42D (other)
chain: MASYFEPTGPYLMVNVTGVDGKRNELLSPRYVEFPIKPGTTLTKEKIEYYVEWALDATAYKEFRVVELDPSAKIEVTYYDKNKKKEETKSFPITEKGFVVPDLSEHIKNPGFNLITKVVIEKK
One may read the Kd as the constant that tells how readily two partners part at equilibrium. A high value points to a looser complex. With B1, the Kd in data set [2] amounted to 4.4 µM. That is a single-digit micromolar value.

B2: SAK fragment form N10ΔSAK42D (other)
chain: MKGDDASYFEPTGPYLMVNVTGVDGKRNELLSPRYVEFPIKPGTTLTKEKIEYYVEWALDATAYKEFRVVELDPSAKIEVTYYDKNKKKEETKSFPITEKGFVVPDLSEHIKNPGFNLITKVVIEKK
Molecule B2 had a Kd in data set [2] of 2.21 µM.

B3: SAK42D: signal-peptide-free mature native staphylokinase from S. aureus phage 42D, 136 amino acids, Seq. Id. No. 1 (protein)
chain: MSSSFDKGKYKKGDDASYFEPTGPYLMVNVTGVDGKRNELLSPRYVEFPIKPGTTLTKEKIEYYVEWALDATAYKEFRVVELDPSAKIEVTYYDKNKKKEETKSFPITEKGFVVPDLSEHIKNPGFNLITKVVIEKK
Take B3: the specific activity in the data set with plasminogen [3] is 16.2 μmol plasmin/(μmol SAK × min).
